Measurements taken from paper PMC11818005, “Elucidation of the key flavonol biosynthetic pathway in golden Camellia and its application in genetic modification of tomato fruit metabolism” (Horticulture Research, 2024).

How the values were obtained:
Assay in all cases: UPLC-UV of flavonol product, initial kinetics
Details in all cases: 100 mM Tricine pH 7.5, 0.1 mM FeSO4, 10 mM ascorbate, 10 mM 2-oxoglutarate, 28°C
[1] = substrate: O=C1c2c(O)cc(O)cc2O[C@H](c2ccc(O)cc2)[C@H]1O; assay type: biochemical, Camellia nitidissima
Source text: (§1) UPLC-UV of flavonol product, initial kinetics on CnFLS1

[2] = substrate: O=C1c2c(O)cc(O)cc2O[C@H](c2ccc(O)c(O)c2)[C@H]1O; assay type: biochemical, Camellia nitidissima
Source text: as §1

[3] = substrate: O=C1c2c(O)cc(O)cc2O[C@H](c2ccc(O)cc2)[C@H]1O; assay type: biochemical, Arabidopsis thaliana
Source text: (§2) UPLC-UV of flavonol product, initial kinetics on AtFLS1

[4] = substrate: O=C1c2c(O)cc(O)cc2O[C@H](c2ccc(O)c(O)c2)[C@H]1O; assay type: biochemical, Arabidopsis thaliana
Source text: as §2

B1: CnFLS1 (Camellia nitidissima) (protein)
chain: MELERVQVIASLSKCIDTIPAEYIRSENEQPAITTIQGKVLEVPVIDLSNDSDDQNIVQMVAEACRDWGIFQVVNHGIPDEVIGNLQRVGKDFFELPQEEKEVYAKPPESKSVEGYGTKLQKEVEGKKGWVDHLFHKIWPPSAINYKFWPKNPPSYREANEVYAERLRAVADKLFRWLSLGLGLEGHEVKEAVGGDDLIYLMKINYYPPCPRPDLALGVVAHTDMSTLTILVPNEVPGLQVFKDDHWYEVKYIPNALIVHIGDQIEIVSNGKYKAVFHRSTVNKETTRMSWPVFIEPSPEVEVGPHPKLIDDENPPKYKTKKYEDYMYCKLNKLPQ
- Km [1]: 60.63 µM
- kcat [1]: 0.08 s⁻¹
- kcat/Km [1]: 1300 M⁻¹ s⁻¹
- Km [2]: 18.68 µM
- kcat [2]: 0.02 s⁻¹
- kcat/Km [2]: 1320 M⁻¹ s⁻¹

B2: AtFLS1 (Arabidopsis thaliana) (protein)
chain: MEVERVQDISSSSLLTEAIPLEFIRSEKEQPAITTFRGPTPAIPVVDLSDPDEESVRRAVVKASEEWGLFQVVNHGIPTELIRRLQDVGRKFFELPSSEKESVAKPEDSKDIEGYGTKLQKDPEGKKAWVDHLFHRIWPPSCVNYRFWPKNPPEYREVNEEYAVHVKKLSETLLGILSDGLGLKRDALKEGLGGEMAEYMMKINYYPPCPRPDLALGVPAHTDLSGITLLVPNEVPGLQVFKDDHWFDAEYIPSAVIVHIGDQILRLSNGRYKNVLHRTTVDKEKTRMSWPVFLEPPREKIVGPLPELTGDDNPPKFKPFAFKDYSYRKLNKLPLD
notes: cloned for comparison with CnFLS1 (pET28b, E. coli Rosetta (DE3), Ni-NTA purified)
- Km [3]: 95.01 µM
- kcat [3]: 0.11 s⁻¹
- kcat/Km [3]: 1180 M⁻¹ s⁻¹
- Km [4]: 29.89 µM
- kcat [4]: 0.02 s⁻¹
- kcat/Km [4]: 794 M⁻¹ s⁻¹
